This data set is described as follows: Temperature stability of the ceramidase. The format is physicochemical. The following applies: 20 mM Tris-HCl pH 7.5, 0.1% polidocanol (Lubrol PX). As to the method: The activity of the ceramidase can be determined in accordance with the method described, for instance, in J. Biol. Chem., 275, 3462-3468 (2000). Concretely, a reaction mixture prepared by dissolving 550 pmol of 12-((N-(7-nitrobenz-2-oxa-1,3-diazol-4-yl)amino)dodecanoyl)sphingosine, hereinafter referred to as C12-NBD-ceramide [Anal. Biochem., 263, 183-188 (1998)], 1.0% (W/V) sodium cholate and a suitable amount of an enzyme (ceramidase) in 20 μl of 25 mM Tris-hydrochloric acid buffer (pH 7.5) is incubated at 37° C. for 30 minutes. The reaction mixture is incubated in a boiling water bath for 5 minutes, thereby stopping the reaction. The resulting reaction mixture is further evaporated to dryness under reduced pressure. The dried solid is dissolved in chloroform/methanol=2/1 (V/V), and developed by silica gel thin layer chromatography (developing solvent: chloroform/methanol/25% aqueous ammonia=90/20/0.5 (V/V/V)). Thereafter, the 12-(N-7-nitrobenz-2-oxa-1,3-diazol-4-yl)amino)dodecanoyl acid, hereinafter referred to as C12-NBD-fatty acid generated by the above-mentioned reaction is quantified by using CS-9300 Chromatoscanner (manufactured by Shimadzu Corporation) at an excitation wavelength of 475 nm and a fluorescent wavelength 525 nm. […]

“Also recorded” adds a separate entry of the source.

B1: ceramidase: isolated and purified neutral/alkaline ceramidase derived from a mouse liver, mature form SEQ ID NO: 14 (protein, listed as Mus sp.)
chain: FSGYYIGVGRADCTGQVSDINLMGYGKNGQNARGLLTRLFSRAFILADPDGSNRMAFVSVELCMISQRLRLEVLKRLESKYGSLYRRDNVILSAIHTHSGPAGFFQYTLYILASEGFSNRTFQYIVSGIMKSIDIAHTNLKPGKIFINKGNVANVQINRSPSSYLLNPQSERARYSSNTDKEMLVLKLVDLNGEDLGLISWFAIHPVSMNNSNHFVNSDNMGYAAYLFEQEKNKGYLPGQGPFVAGFASSNLGDVSPNILGPHCVNTGESCDNDKSTCPNGGPSMCMASGPGQDMFESTHIIGRIIYQKAKELYASASQEVTGPVLAAHQWVNMTDVSVQLNATHTVKTCKPALGYSFAAGTIDGVSGLNITQGTTEGDPFWDTLRDQLLGKPSEEIVECQKPKPILLHSGELTIPHPWQPDIVDVQIVTVGSLAIAAIPGELTTMSGRRFREAIKKEFALYGMKDMTVVIAGLSNVYTHYITTYEEYQAQRYEAASTIYGPHTLSAYIQLFRDLAKAIATDTVANMSSGPEPPFFKNLIASLIPNIADRAPIGKHFGDVLQPAKPEYRVGEVVEVIFVGANPKNSAENQTHQTFLTVEKYEDSVADWQIMYNDASWETRFYWHKGILGLSNATIYWHIPDTAYPGIYRIRYFGHNRKQELLKPAVILAFEGISSPFEVVTT
Consider B1, for which the “Activity after treatment at 37° C. for 24 hours” value was “reduced activity not being observed; also recorded: does not show the reduced activity” and the “Activity after treatment at 60° C. for 1 hour, relative to activity before the treatment” value is recorded as “about 30%”.

The values above are taken from US7449553B2, “Antibody that binds ceramidase” (Takara Bio Inc., priority 1999, dated 2008).
